Test results reported in US20130129739A1 (Bayer, published 2013).

T1: extracellular domain of human PRLR (monomeric, soluble) (human, UniProt P16471 25-234)
T1 construct: also called ECD-PRLR; ECD of PRLR
T1 sequence: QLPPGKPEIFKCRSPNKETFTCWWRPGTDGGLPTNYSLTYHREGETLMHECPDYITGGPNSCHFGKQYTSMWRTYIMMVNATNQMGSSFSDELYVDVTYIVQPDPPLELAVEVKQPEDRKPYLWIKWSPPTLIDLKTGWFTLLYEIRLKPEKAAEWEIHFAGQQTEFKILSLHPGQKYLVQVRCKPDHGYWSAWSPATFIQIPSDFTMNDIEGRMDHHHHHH

B1: 005-C04-L2-1-11-3 (Fab, V domains shown)
VH: EVQLLESGGGLVQPGGSLRLSCAASGFTFSSYWNHWVRQAPGKGLEWVSDMSSLSSYTNYADSVKGRFTISRDNSKNTLYLQMNSLRAEDTAVYYCARGLDARRMDYWGQGTLVTVTS
VL: QSVLTQPPSASGTPGQRVTISCTGSSSNIGAGYVVHWYQQLPGTAPKLLIYRNNVRPSGVPDRFSGSKSGTSASLAISGLRSEDEADYYCAAWDDSLNGWLFGGGTKLTVLG
notes: Maturated 005-C04 variant; Fab in E. coli supernatant, flag-detected
B2: 005-C04-L2-1-42-0 (Fab, V domains shown)
VH: EVQLLESGGGLVQPGGSLRLSCAASGFTFSSYWNHWVRQAPGKGLEWVSDIARASSYTGYADSVKGRFTISRDNSKNTLYLQMNSLRAEDTAVYYCARGLDARRMDYWGQGTLVTVTS
VL: QSVLTQPPSASGTPGQRVTISCTGSSSNIGAGYVVHWYQQLPGTAPKLLIYRNNWRQSGVPDRFSGSKSGTSASLAISGLRSEDEADYYCAAWDDSLNGWLFGGGTKLTVLG
notes: as for B1
B3: 005-C04-L2-1-23-7 (Fab, V domains shown)
VH: EVQLLESGGGLVQPGGSLRLSCAASGFTFSSYWNHWVRQAPGKGLEWVSDISRASPYTGYADSVKGRFTISRDNSKNTLYLQMNSLRAEDTAVYYCARGLDARRMDYWGQGTLVTVTS
VL: QSVLTQPPSASGTPGQRVTISCTGSSSNIGAGYVVHWYQQLPGTAPKLLIYRNNWRPSGVPDRFSGSKSGTSASLAISGLRSEDEADYYCAAWDDSLNGWLFGGGTKLTVLG
notes: as for B1
B4: 005-C04-L2-1-40-2 (Fab, V domains shown)
VH: EVQLLESGGGLVQPGGSLRLSCAASGFTFSSYWNHWVRQAPGKGLEWVSDISRASPYTGYADSVKGRFTISRDNSKNTLYLQMNSLRAEDTAVYYCARGLDARRMDYWGQGTLVTVTS
VL: QSVLTQPPSASGTPGQRVTISCTGSSSNIGAGYVVHWYQQLPGTAPKLLIYRNNQRQSGVPDRFSGSKSGTSASLAISGLRSEDEADYYCAAWDDSLNGWLFGGGTKLTVLG
notes: as for B1
B5: 005-C04-L2-1-36-6 (Fab, V domains shown)
VH: EVQLLESGGGLVQPGGSLRLSCAASGFTFSSYWNHWVRQAPGKGLEWVSDMASLSSYTNYADSVKGRFTISRDNSKNTLYLQMNSLRAEDTAVYYCARGLDARRMDYWGQGTLVTVTS
VL: QSVLTQPPSASGTPGQRVTISCTGSSSNIGAGYVVHWYQQLPGTAPKLLIYRNNWRQSGVPDRFSGSKSGTSASLAISGLRSEDEADYYCAAWDDSLNGWLFGGGTKLTVLG
notes: as for B1
B6: 005-C04-L2-1-21-7 (Fab, V domains shown)
VH: EVQLLESGGGLVQPGGSLRLSCAASGFTFSSYWWHWVRQAPGKGLEWVSDMSRLSSYTNYADSVKGRFTISRDNSKNTLYLQMNSLRAEDTAVYYCARGLDARRMDYWGQGTLVTVTS
VL: QSVLTQPPSASGTPGQRVTISCTGSSSNIGAGYVVHWYQQLPGTAPKLLIYRNNQRQSGVPDRFSGSKSGTSASLAISGLRSEDEADYYCAAWDDSLNGWLFGGGTKLTVLG
notes: as for B1
B7: 005-C04-L2-1-12-4 (Fab, V domains shown)
VH: EVQLLESGGGLVQPGGSLRLSCAASGFTFSSYWNHWVRQAPGKGLEWVSDIARLSSYTNYADSVKGRFTISRDNSKNTLYLQMNSLRAEDTAVYYCARGLDARRMDYWGQGTLVTVTS
VL: QSVLTQPPSASGTPGQRVTISCTGSSSNIGAGYVVHWYQQLPGTAPKLLIYRNNWRPSGVPDRFSGSKSGTSASLAISGLRSEDEADYYCAAWDDSLNGWLFGGGTKLTVLG
notes: as for B1
B8: 005-C04-L2-1-25-4 (Fab, V domains shown)
VH: EVQLLESGGGLVQPGGSLRLSCAASGFTFSSYWNHWVRQAPGKGLEWVSDISRLSPYTNYADSVKGRFTISRDNSKNTLYLQMNSLRAEDTAVYYCARGLDARRMDYWGQGTLVTVTS
VL: QSVLTQPPSASGTPGQRVTISCTGSSSNIGAGYVVHWYQQLPGTAPKLLIYRNNQRQSGVPDRFSGSKSGTSASLAISGLRSEDEADYYCAAWDDSLNGWLFGGGTKLTVLG
notes: as for B1
B9: 005-C04-L2-1-40-7 (Fab, V domains shown)
VH: EVQLLESGGGLVQPGGSLRLSCAASGFTFSSYWNHWVRQAPGKGLEWVSDIASASSYTGYADSVKGRFTISRDNSKNTLYLQMNSLRAEDTAVYYCARGLDARRMDYWGQGTLVTVTS
VL: QSVLTQPPSASGTPGQRVTISCTGSSSNIGAGYVVHWYQQLPGTAPKLLIYRNNWRQSGVPDRFSGSKSGTSASLAISGLRSEDEADYYCAAWDDSLNGWLFGGGTKLTVLG
notes: as for B1
B10: 005-C04-L2-1-20-1 (Fab, V domains shown)
VH: EVQLLESGGGLVQPGGSLRLSCAASGFTFSSYWWHWVRQAPGKGLEWVSDIARASSYTNYADSVKGRFTISRDNSKNTLYLQMNSLRAEDTAVYYCARGLDARRMDYWGQGTLVTVTS
VL: QSVLTQPPSASGTPGQRVTISCTGSSSNIGYGYVVHWYQQLPGTAPKLLIYRNNWRPSGVPDRFSGSKSGTSASLAISGLRSEDEADYYCAAWDDSLNGWLFGGGTKLTVLG
notes: as for B1
B11: 005-C04-L2-1-25-0 (Fab, V domains shown)
VH: EVQLLESGGGLVQPGGSLRLSCAASGFTFSSYWWHWVRQAPGKGLEWVSDIARASSYTNYADSVKGRFTISRDNSKNTLYLQMNSLRAEDTAVYYCARGLDARRMDYWGQGTLVTVTS
VL: QSVLTQPPSASGTPGQRVTISCTGSSSNIGAGYVVHWYQQLPGTAPKLLIYRNNWRPSGVPDRFSGSKSGTSASLAISGLRSEDEADYYCAAWDDSLNGWLFGGGTKLTVLG
notes: as for B1
B12: 005-C04-L2-1-38-3 (Fab, V domains shown)
VH: EVQLLESGGGLVQPGGSLRLSCAASGFTFSSYWNHWVRQAPGKGLEWVSDISRLSSYTNYADSVKGRFTISRDNSKNTLYLQMNSLRAEDTAVYYCARGLDARRMDYWGQGTLVTVTS
VL: QSVLTQPPSASGTPGQRVTISCTGSSSNIGYGYVVHWYQQLPGTAPKLLIYRNNWRPSGVPDRFSGSKSGTSASLAISGLRSEDEADYYCAAWDDSLNGWLFGGGTKLTVLG
notes: as for B1
B13: 005-C04-L2-1-25-5 (Fab, V domains shown)
VH: EVQLLESGGGLVQPGGSLRLSCAASGFTFSSYWNHWVRQAPGKGLEWVSDMASLSPYTGYADSVKGRFTISRDNSKNTLYLQMNSLRAEDTAVYYCARGLDARRMDYWGQGTLVTVTS
VL: QSVLTQPPSASGTPGQRVTISCTGSSSNIGAGYVVHWYQQLPGTAPKLLIYRNNQRQSGVPDRFSGSKSGTSASLAISGLRSEDEADYYCAAWDDSLNGWLFGGGTKLTVLG
notes: as for B1
B14: 005-C04-L2-1-33-7 (Fab, V domains shown)
VH: EVQLLESGGGLVQPGGSLRLSCAASGFTFSSYWNHWVRQAPGKGLEWVSDIARLSPYTGYADSVKGRFTISRDNSKNTLYLQMNSLRAEDTAVYYCARGLDARRMDYWGQGTLVTVTS
VL: QSVLTQPPSASGTPGQRVTISCTGSSSNIGAGYVVHWYQQLPGTAPKLLIYRNNVRQSGVPDRFSGSKSGTSASLAISGLRSEDEADYYCAAWDDSLNGWLFGGGTKLTVLG
notes: as for B1
B15: 005-C04-L2-1-20-0 (Fab, V domains shown)
VH: EVQLLESGGGLVQPGGSLRLSCAASGFTFSSYWWHWVRQAPGKGLEWVSDMSRLSSYTNYADSVKGRFTISRDNSKNTLYLQMNSLRAEDTAVYYCARGLDARRMDYWGQGTLVTVTS
VL: QSVLTQPPSASGTPGQRVTISCTGSSSNIGAGYVVHWYQQLPGTAPKLLIYRNNVRQSGVPDRFSGSKSGTSASLAISGLRSEDEADYYCAAWDDSLNGWLFGGGTKLTVLG
notes: as for B1
B16: 005-C04-L2-1-25-7 (Fab, V domains shown)
VH: EVQLLESGGGLVQPGGSLRLSCAASGFTFSSYWWHWVRQAPGKGLEWVSDIARASSYTNYADSVKGRFTISRDNSKNTLYLQMNSLRAEDTAVYYCARGLDARRMDYWGQGTLVTVTS
VL: QSVLTQPPSASGTPGQRVTISCTGSSSNIGYGYVVHWYQQLPGTAPKLLIYRNNWRPSGVPDRFSGSKSGTSASLAISGLRSEDEADYYCAAWDDSLNGWLFGGGTKLTVLG
notes: as for B1
B17: 005-C04-L2-1-28-7 (Fab, V domains shown)
VH: EVQLLESGGGLVQPGGSLRLSCAASGFTFSSYWNHWVRQAPGKGLEWVSDMSSLSSYTGYADSVKGRFTISRDNSKNTLYLQMNSLRAEDTAVYYCARGLDARRMDYWGQGTLVTVTS
VL: QSVLTQPPSASGTPGQRVTISCTGSSSNIGAGYVVHWYQQLPGTAPKLLIYRNNVRQSGVPDRFSGSKSGTSASLAISGLRSEDEADYYCAAWDDSLNGWLFGGGTKLTVLG
notes: as for B1
B18: 005-C04-L2-1-31-7 (Fab, V domains shown)
VH: EVQLLESGGGLVQPGGSLRLSCAASGFTFSSYWWHWVRQAPGKGLEWVSDIARLSPYTNYADSVKGRFTISRDNSKNTLYLQMNSLRAEDTAVYYCARGLDARRMDYWGQGTLVTVTS
VL: QSVLTQPPSASGTPGQRVTISCTGSSSNIGAGYVVHWYQQLPGTAPKLLIYRNNWRQSGVPDRFSGSKSGTSASLAISGLRSEDEADYYCAAWDDSLNGWLFGGGTKLTVLG
notes: as for B1
B19: 005-C04-L2-1-16-4 (Fab, V domains shown)
VH: EVQLLESGGGLVQPGGSLRLSCAASGFTFSSYWNHWVRQAPGKGLEWVSDMSRLSSYTNYADSVKGRFTISRDNSKNTLYLQMNSLRAEDTAVYYCARGLDARRMDYWGQGTLVTVTS
VL: QSVLTQPPSASGTPGQRVTISCTGSSSNIGAGYVVHWYQQLPGTAPKLLIYRNNWRPSGVPDRFSGSKSGTSASLAISGLRSEDEADYYCAAWDDSLNGWLFGGGTKLTVLG
notes: as for B1

Target: T1, extracellular domain of human PRLR …
Experiment: ELISA: plate coated with human PRLR extracellular domain, Fab-containing E. coli supernatant, anti-flag-HRP, Amplex Red
Method: 96 well microtiter plates were coated with 1 μg per milliliter of human PRLR. Plates were incubated over night at 4° C. After blocking with PBS buffer containing 3% bovine serum albumin, normalized E. coli-derived supernatants containing the Fab variants were added. Detection of formed complexes occurred via the addition of an anti-flag antibody (Sigma, A8592) labeled with horseradish peroxidase.

Binding result, binds:
B1, B2, B3, B4, B5, B6, B7, B8, B9, B10, B11, B12, B13, B14, B15, B16, B17, B18, B19
